We go through 1 molecule from PMC4351158 (Structure (London, England : 1993), 2015).

One may read the Kd as the equilibrium constant for the complex coming apart. A higher Kd goes with weaker binding.

Holding throughout (assay): fluorescence polarisation
On the technique in general: Fluorescence polarisation rises when a labelled molecule tumbles more slowly, as on binding a larger partner.

Test [1] has as its target T1, wild-type DegS (residues 27-355, without the membrane anchor) (E. coli, UniProt P0AEE3 27-355).
T1 sequence (looked up): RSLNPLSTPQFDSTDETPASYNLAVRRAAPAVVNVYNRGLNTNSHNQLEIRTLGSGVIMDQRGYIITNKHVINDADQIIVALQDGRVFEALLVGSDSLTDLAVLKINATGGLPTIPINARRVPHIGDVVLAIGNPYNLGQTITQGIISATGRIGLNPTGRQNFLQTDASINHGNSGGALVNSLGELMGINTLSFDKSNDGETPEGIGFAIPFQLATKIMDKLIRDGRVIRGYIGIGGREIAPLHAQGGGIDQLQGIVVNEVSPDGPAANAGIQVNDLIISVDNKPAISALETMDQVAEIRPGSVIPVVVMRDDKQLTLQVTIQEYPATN

The target in a further test is T2, DegS H198P/I232A (E. coli, UniProt P0AEE3 27-355, H198P | I232A).
T2 sequence (looked up): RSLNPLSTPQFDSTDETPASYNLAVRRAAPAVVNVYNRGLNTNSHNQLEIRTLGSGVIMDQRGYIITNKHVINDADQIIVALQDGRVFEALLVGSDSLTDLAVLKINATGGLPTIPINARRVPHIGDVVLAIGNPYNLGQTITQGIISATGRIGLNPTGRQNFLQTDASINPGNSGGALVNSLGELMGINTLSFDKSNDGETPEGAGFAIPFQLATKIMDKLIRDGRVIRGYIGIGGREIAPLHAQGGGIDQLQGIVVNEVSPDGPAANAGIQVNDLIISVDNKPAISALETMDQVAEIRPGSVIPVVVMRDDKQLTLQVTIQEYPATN

The target of another test is T3, DegS H198P/F234A (E. coli, UniProt P0AEE3 27-355, H198P | F234A).
T3 sequence (looked up): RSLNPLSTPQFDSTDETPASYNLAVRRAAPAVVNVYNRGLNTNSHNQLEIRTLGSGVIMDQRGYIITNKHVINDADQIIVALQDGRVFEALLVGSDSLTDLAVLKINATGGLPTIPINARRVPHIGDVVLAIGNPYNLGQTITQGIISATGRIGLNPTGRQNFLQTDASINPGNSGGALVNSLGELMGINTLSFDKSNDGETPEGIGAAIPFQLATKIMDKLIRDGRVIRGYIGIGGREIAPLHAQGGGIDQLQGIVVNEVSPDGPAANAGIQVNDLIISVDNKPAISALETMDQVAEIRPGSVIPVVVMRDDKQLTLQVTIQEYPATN

The target of the next test is T4, DegS F234A (E. coli, UniProt P0AEE3 27-355, F234A).
T4 sequence (looked up): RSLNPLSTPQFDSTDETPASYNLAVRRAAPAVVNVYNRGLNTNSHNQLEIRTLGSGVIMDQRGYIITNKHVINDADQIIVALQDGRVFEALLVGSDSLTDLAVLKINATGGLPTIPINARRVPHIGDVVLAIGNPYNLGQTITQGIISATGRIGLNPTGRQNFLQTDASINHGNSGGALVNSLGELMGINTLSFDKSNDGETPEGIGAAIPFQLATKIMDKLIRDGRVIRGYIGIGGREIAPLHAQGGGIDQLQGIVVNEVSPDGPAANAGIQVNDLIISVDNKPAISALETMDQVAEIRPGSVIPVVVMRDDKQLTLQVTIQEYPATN

In the next test the target is T5, DegS T169A (E. coli, UniProt P0AEE3 27-355, T169A).
T5 sequence (looked up): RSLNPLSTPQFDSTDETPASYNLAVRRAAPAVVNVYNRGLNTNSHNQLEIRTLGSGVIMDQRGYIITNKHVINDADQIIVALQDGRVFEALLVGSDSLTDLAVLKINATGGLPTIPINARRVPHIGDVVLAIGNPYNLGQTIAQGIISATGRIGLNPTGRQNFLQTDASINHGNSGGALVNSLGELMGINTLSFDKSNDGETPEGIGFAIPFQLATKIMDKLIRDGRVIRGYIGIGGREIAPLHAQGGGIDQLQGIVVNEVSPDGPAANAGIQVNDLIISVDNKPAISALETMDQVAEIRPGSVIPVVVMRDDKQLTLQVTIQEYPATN

Where no end group is shown, it is not given here. fluorescein = fluorescein, a fluorescent label on the peptide N-terminus

As to fluorescein-DNRDGNVYYF [fluorescent OMP peptide fluorescein-DNRDGNVYYF], the Kd in test [1] amounted to 4000 ± 400 nM; with DegS H198P/I232A, 2700 ± 300 nM; in the test with DegS H198P/F234A, 2900 ± 100 nM; with DegS F234A, 5900 ± 600 nM; with DegS T169A it was 1800 ± 100 nM.
